# Measured values as given in patent publication US20180155451A1 (published 2018).
# Target: T1, FcγRIIIa extracellular domain with C-terminal His tag (human, UniProt P08637 17-208)
# T1 construct: extracellular domain; also called FcgRIIIa; 3a; not shown: His tag at the C terminus
# Assay: SPR relative binding; GpH7-A5/GpH7-B3/GpL16-k0 = 100
# Source text: First, variants of interest were expressed and prepared according to the method described in Reference Example 1, using GpH7-A5 as an H chain; and GpL16-k0 as the L chain; and as the other H chain, GpH7-HA5 (SEQ ID NO: 19), GpH7-HA6 (SEQ ID NO: 20), and GpH7-HA11 (SEQ ID NO: 21) resulting from the introduction of L234Y, G236W, and S298A, respectively, into GpH7-B12 introduced with the alteration P329R. Furthermore, antibodies of interest were expressed and prepared according to the method described in Reference Example 1, using as an H chain, GpH7-A48 (SEQ ID NO: 16) resulting from the introduction of P329R into GpH7-A5; and GpL16-k0 as the L chain; and as the other H chain, GpH7-B3-01-15Y (SEQ ID NO: 22), GpH7-B3-03-20W (SEQ ID NO: 23), and GpH7-B3-15-02A (SEQ ID NO: 24) resulting from the introduction of L234Y, G236W, and S298A, respectively, into GpH7-B3. The antibodies thus obtained were named GpH7-A5/GpH7-HA5/GpL16-k0 (SEQ ID NOs: 3, 19, and 5, respectively), GpH7-A5/GpH7-HA6/GpL16-k0 (SEQ ID NOs: 3, 20, and 5, respectively), GpH7-A5/GpH7-HA11/GpL16-k0 (SEQ ID NOs: 3, 21, and 5, respectively), GpH7-A48/GpH7-B3-01-15Y/GpL16-k0 (SEQ ID NOs: 16, 22, and 5, respectively), GpH7-A48/GpH7-B3-03-20W/GpL16-k0 (SEQ ID NOs: 16, 23, and 5, respectively), and GpH7-A48/GpH7-B3-15-02A/GpL16-k0 (SEQ ID NO: 16, 24, and 5, respectively). The variants were compared to each other for the FcγRIIIa-binding activity according to the method described in Reference Example 2.
# Analysis of interaction between objective antibody and the FcγR was carried out using Biacore T100 (GE Healthcare). HBS-EP+ (GE Healthcare) was used as the running buffer, and the measurement temperature was set to 25° C. Chips produced by immobilizing the antigen peptide by the amine coupling method to a Series S Sencor Chip CM5 (GE Healthcare), or alternatively, chips produced by allowing preliminarily biotinylated antigen peptides to interact with and immobilize onto a Series S Sensor Chip SA (certified) (GE Healthcare) were used. Antibodies of interest were captured onto an antigen peptide-immobilized chip, and allowed to interact to each FcγR diluted with running buffer. To regenerate and repeatedly use the chip, the antibodies captured on the chip were washed off by reacting 10 mM glycine-HCl, pH 1.5.
# T1 sequence (P08637 17-208): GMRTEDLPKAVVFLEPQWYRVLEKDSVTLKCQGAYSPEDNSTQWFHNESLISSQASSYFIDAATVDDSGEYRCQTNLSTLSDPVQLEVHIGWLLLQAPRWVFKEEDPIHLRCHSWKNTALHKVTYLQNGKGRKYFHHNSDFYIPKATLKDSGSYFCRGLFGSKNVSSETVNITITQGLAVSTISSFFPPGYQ
row,FcγRIIIa BINDING ACTIVITY,Binder
1,13 % of control,"GpH7-A48/GpH7-B3-03-20W/GpL16-k0 (antibody, human IgG1, kappa, H1 P329R; H2 G236W) heavy 1: QVQLVQSGAEVKKPGASVTVSCKASGYTFTDYEMHWIRQPPGEGLEWIGAIDPKTGDTAYSESFQDRVTLTADKSTSTAYMELSSLTSEDTAVYYCTRFYSYTYWGQGTLVTVSSASTKGPSVFPLAPSSKSTSGGTAALGCLVKDYFPEPVTVSWNSGALTSGVHTFPAVLQSSGLYSLSSVVTVPSSSLGTQTYICNVNHKPSNTKVDKKVEPKSCDKTHTCPPCPAPELLGGPSVFLFPPKPKDTLMISRTPEVTCVVVDVSHEDPEVKFNWYVDGVEVHNAKTKPREEQYNSTYRVVSVLTVLHQDWLNGKEYKCKVSNKALRAPIEKTISKAKGQPREPQVYTLPPSRKELTKNQVSLTCLVKGFYPSDIAVEWESNGQPENNYKTTPPVLDSDGSFFLYSKLTVDKSRWQQGNVFSCSVMHEALHNRYTQKSLSLSP heavy 2: not shown light: DIVMTQSPLSLPVTPGEPASISCQASESLVHSNRNTYLHWYLQKPGQSPQLLIYKVSNRFSGVPDRFSGSGSGTDFTLKISRVEAEDVGVYYCSQNTHVPPTFGQGTKVEIERTVAAPSVFIFPPSDEQLKSGTASVVCLLNNFYPREAKVQWKVDNALQSGNSQESVTEQDSKDSTYSLSSTLTLSKADYEKHKVYACEVTHQGLSSPVTKSFNRGEC"
2,47 % of control,"GpH7-A48/GpH7-B3-15-02A/GpL16-k0 (antibody, human IgG1, kappa, H1 P329R; H2 S298A) heavy 1: QVQLVQSGAEVKKPGASVTVSCKASGYTFTDYEMHWIRQPPGEGLEWIGAIDPKTGDTAYSESFQDRVTLTADKSTSTAYMELSSLTSEDTAVYYCTRFYSYTYWGQGTLVTVSSASTKGPSVFPLAPSSKSTSGGTAALGCLVKDYFPEPVTVSWNSGALTSGVHTFPAVLQSSGLYSLSSVVTVPSSSLGTQTYICNVNHKPSNTKVDKKVEPKSCDKTHTCPPCPAPELLGGPSVFLFPPKPKDTLMISRTPEVTCVVVDVSHEDPEVKFNWYVDGVEVHNAKTKPREEQYNSTYRVVSVLTVLHQDWLNGKEYKCKVSNKALRAPIEKTISKAKGQPREPQVYTLPPSRKELTKNQVSLTCLVKGFYPSDIAVEWESNGQPENNYKTTPPVLDSDGSFFLYSKLTVDKSRWQQGNVFSCSVMHEALHNRYTQKSLSLSP heavy 2: not shown light: DIVMTQSPLSLPVTPGEPASISCQASESLVHSNRNTYLHWYLQKPGQSPQLLIYKVSNRFSGVPDRFSGSGSGTDFTLKISRVEAEDVGVYYCSQNTHVPPTFGQGTKVEIERTVAAPSVFIFPPSDEQLKSGTASVVCLLNNFYPREAKVQWKVDNALQSGNSQESVTEQDSKDSTYSLSSTLTLSKADYEKHKVYACEVTHQGLSSPVTKSFNRGEC"

# The remaining lines, values behind:
row,Binder,FcγRIIIa BINDING ACTIVITY
1,"GpH7-A5/GpH7-HA5/GpL16-k0 (antibody, human IgG1, kappa, H2 L234Y and P329R) heavy 1: not shown heavy 2: QVQLVQSGAEVKKPGASVTVSCKASGYTFTDYEMHWIRQPPGEGLEWIGAIDPKTGDTAYSESFQDRVTLTADKSTSTAYMELSSLTSEDTAVYYCTRFYSYTYWGQGTLVTVSSASTKGPSVFPLAPSSKSTSGGTAALGCLVKDYFPEPVTVSWNSGALTSGVHTFPAVLQSSGLYSLSSVVTVPSSSLGTQTYICNVNHKPSNTKVDKKVEPKSCDKTHTCPPCPAPEYLGGPSVFLFPPKPKDTLMISRTPEVTCVVVDVSHEDPEVKFNWYVDGVEVHNAKTKPREEQYNSTYRVVSVLTVLHQDWLNGKEYKCKVSNKALRAPIEKTISKAKGQPREPQVYTLPPSRDELTKNQVSLTCLVKGFYPSDIAVEWESNGQPENNYKTTPPVLDSDGSFFLYSKLTVDKSRWQQGNVFSCSVMHEALHNHYTQESLSLSP light: DIVMTQSPLSLPVTPGEPASISCQASESLVHSNRNTYLHWYLQKPGQSPQLLIYKVSNRFSGVPDRFSGSGSGTDFTLKISRVEAEDVGVYYCSQNTHVPPTFGQGTKVEIERTVAAPSVFIFPPSDEQLKSGTASVVCLLNNFYPREAKVQWKVDNALQSGNSQESVTEQDSKDSTYSLSSTLTLSKADYEKHKVYACEVTHQGLSSPVTKSFNRGEC",60 % of control
2,"GpH7-A48/GpH7-B3-01-15Y/GpL16-k0 (antibody, human IgG1, kappa, H1 P329R; H2 L234Y) heavy 1: QVQLVQSGAEVKKPGASVTVSCKASGYTFTDYEMHWIRQPPGEGLEWIGAIDPKTGDTAYSESFQDRVTLTADKSTSTAYMELSSLTSEDTAVYYCTRFYSYTYWGQGTLVTVSSASTKGPSVFPLAPSSKSTSGGTAALGCLVKDYFPEPVTVSWNSGALTSGVHTFPAVLQSSGLYSLSSVVTVPSSSLGTQTYICNVNHKPSNTKVDKKVEPKSCDKTHTCPPCPAPELLGGPSVFLFPPKPKDTLMISRTPEVTCVVVDVSHEDPEVKFNWYVDGVEVHNAKTKPREEQYNSTYRVVSVLTVLHQDWLNGKEYKCKVSNKALRAPIEKTISKAKGQPREPQVYTLPPSRKELTKNQVSLTCLVKGFYPSDIAVEWESNGQPENNYKTTPPVLDSDGSFFLYSKLTVDKSRWQQGNVFSCSVMHEALHNRYTQKSLSLSP heavy 2: not shown light: DIVMTQSPLSLPVTPGEPASISCQASESLVHSNRNTYLHWYLQKPGQSPQLLIYKVSNRFSGVPDRFSGSGSGTDFTLKISRVEAEDVGVYYCSQNTHVPPTFGQGTKVEIERTVAAPSVFIFPPSDEQLKSGTASVVCLLNNFYPREAKVQWKVDNALQSGNSQESVTEQDSKDSTYSLSSTLTLSKADYEKHKVYACEVTHQGLSSPVTKSFNRGEC",11 % of control
3,"GpH7-A5/GpH7-HA6/GpL16-k0 (antibody, human IgG1, kappa, H2 G236W and P329R) heavy 1: not shown heavy 2: QVQLVQSGAEVKKPGASVTVSCKASGYTFTDYEMHWIRQPPGEGLEWIGAIDPKTGDTAYSESFQDRVTLTADKSTSTAYMELSSLTSEDTAVYYCTRFYSYTYWGQGTLVTVSSASTKGPSVFPLAPSSKSTSGGTAALGCLVKDYFPEPVTVSWNSGALTSGVHTFPAVLQSSGLYSLSSVVTVPSSSLGTQTYICNVNHKPSNTKVDKKVEPKSCDKTHTCPPCPAPELLWGPSVFLFPPKPKDTLMISRTPEVTCVVVDVSHEDPEVKFNWYVDGVEVHNAKTKPREEQYNSTYRVVSVLTVLHQDWLNGKEYKCKVSNKALRAPIEKTISKAKGQPREPQVYTLPPSRDELTKNQVSLTCLVKGFYPSDIAVEWESNGQPENNYKTTPPVLDSDGSFFLYSKLTVDKSRWQQGNVFSCSVMHEALHNHYTQESLSLSP light: DIVMTQSPLSLPVTPGEPASISCQASESLVHSNRNTYLHWYLQKPGQSPQLLIYKVSNRFSGVPDRFSGSGSGTDFTLKISRVEAEDVGVYYCSQNTHVPPTFGQGTKVEIERTVAAPSVFIFPPSDEQLKSGTASVVCLLNNFYPREAKVQWKVDNALQSGNSQESVTEQDSKDSTYSLSSTLTLSKADYEKHKVYACEVTHQGLSSPVTKSFNRGEC",56 % of control
4,"GpH7-A5/GpH7-HA11/GpL16-k0 (antibody, human IgG1, kappa, H2 S298A and P329R) heavy 1: not shown heavy 2: QVQLVQSGAEVKKPGASVTVSCKASGYTFTDYEMHWIRQPPGEGLEWIGAIDPKTGDTAYSESFQDRVTLTADKSTSTAYMELSSLTSEDTAVYYCTRFYSYTYWGQGTLVTVSSASTKGPSVFPLAPSSKSTSGGTAALGCLVKDYFPEPVTVSWNSGALTSGVHTFPAVLQSSGLYSLSSVVTVPSSSLGTQTYICNVNHKPSNTKVDKKVEPKSCDKTHTCPPCPAPELLGGPSVFLFPPKPKDTLMISRTPEVTCVVVDVSHEDPEVKFNWYVDGVEVHNAKTKPREEQYNATYRVVSVLTVLHQDWLNGKEYKCKVSNKALRAPIEKTISKAKGQPREPQVYTLPPSRDELTKNQVSLTCLVKGFYPSDIAVEWESNGQPENNYKTTPPVLDSDGSFFLYSKLTVDKSRWQQGNVFSCSVMHEALHNHYTQESLSLSP light: DIVMTQSPLSLPVTPGEPASISCQASESLVHSNRNTYLHWYLQKPGQSPQLLIYKVSNRFSGVPDRFSGSGSGTDFTLKISRVEAEDVGVYYCSQNTHVPPTFGQGTKVEIERTVAAPSVFIFPPSDEQLKSGTASVVCLLNNFYPREAKVQWKVDNALQSGNSQESVTEQDSKDSTYSLSSTLTLSKADYEKHKVYACEVTHQGLSSPVTKSFNRGEC",84 % of control
